# Results: US20180155451A1 (published 2018)
# T1: FcγRIIa R (human, UniProt P12318 34-217)
# T1 construct: extracellular domain; also called FcgRIIa R type; 2aR
# T1 sequence (looked up): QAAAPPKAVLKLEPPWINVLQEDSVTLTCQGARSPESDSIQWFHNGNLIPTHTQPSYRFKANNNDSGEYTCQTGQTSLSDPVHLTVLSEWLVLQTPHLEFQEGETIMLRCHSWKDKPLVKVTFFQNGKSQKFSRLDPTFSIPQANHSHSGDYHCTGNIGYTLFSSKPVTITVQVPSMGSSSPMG
# Target: T1, FcγRIIa R
# Assay: SPR Biacore; vs GpH7-B3/GpL16-k0 =100
row,Binder,Ho/Con_2aR
1,"GpH7-B3 variant L328_14T/GpL16-k0 (antibody, human IgG1, kappa, also called Ho Ab L328_14T) heavy: not shown light: DIVMTQSPLSLPVTPGEPASISCQASESLVHSNRNTYLHWYLQKPGQSPQLLIYKVSNRFSGVPDRFSGSGSGTDFTLKISRVEAEDVGVYYCSQNTHVPPTFGQGTKVEIERTVAAPSVFIFPPSDEQLKSGTASVVCLLNNFYPREAKVQWKVDNALQSGNSQESVTEQDSKDSTYSLSSTLTLSKADYEKHKVYACEVTHQGLSSPVTKSFNRGEC",118 % of control
2,"GpH7-B3 variant N325_09D/GpL16-k0 (antibody, human IgG1, kappa, also called Ho Ab N325_09D) heavy: not shown light: DIVMTQSPLSLPVTPGEPASISCQASESLVHSNRNTYLHWYLQKPGQSPQLLIYKVSNRFSGVPDRFSGSGSGTDFTLKISRVEAEDVGVYYCSQNTHVPPTFGQGTKVEIERTVAAPSVFIFPPSDEQLKSGTASVVCLLNNFYPREAKVQWKVDNALQSGNSQESVTEQDSKDSTYSLSSTLTLSKADYEKHKVYACEVTHQGLSSPVTKSFNRGEC",74.8 % of control
3,"GpH7-B3 variant N325_07I/GpL16-k0 (antibody, human IgG1, kappa, also called Ho Ab N325_07I) heavy: not shown light: DIVMTQSPLSLPVTPGEPASISCQASESLVHSNRNTYLHWYLQKPGQSPQLLIYKVSNRFSGVPDRFSGSGSGTDFTLKISRVEAEDVGVYYCSQNTHVPPTFGQGTKVEIERTVAAPSVFIFPPSDEQLKSGTASVVCLLNNFYPREAKVQWKVDNALQSGNSQESVTEQDSKDSTYSLSSTLTLSKADYEKHKVYACEVTHQGLSSPVTKSFNRGEC",77 % of control
4,"GpH7-B3 variant N325_03V/GpL16-k0 (antibody, human IgG1, kappa, also called Ho Ab N325_03V) heavy: not shown light: DIVMTQSPLSLPVTPGEPASISCQASESLVHSNRNTYLHWYLQKPGQSPQLLIYKVSNRFSGVPDRFSGSGSGTDFTLKISRVEAEDVGVYYCSQNTHVPPTFGQGTKVEIERTVAAPSVFIFPPSDEQLKSGTASVVCLLNNFYPREAKVQWKVDNALQSGNSQESVTEQDSKDSTYSLSSTLTLSKADYEKHKVYACEVTHQGLSSPVTKSFNRGEC",37.8 % of control
5,"GpH7-B3 variant N325_08L/GpL16-k0 (antibody, human IgG1, kappa, also called Ho Ab N325_08L) heavy: not shown light: DIVMTQSPLSLPVTPGEPASISCQASESLVHSNRNTYLHWYLQKPGQSPQLLIYKVSNRFSGVPDRFSGSGSGTDFTLKISRVEAEDVGVYYCSQNTHVPPTFGQGTKVEIERTVAAPSVFIFPPSDEQLKSGTASVVCLLNNFYPREAKVQWKVDNALQSGNSQESVTEQDSKDSTYSLSSTLTLSKADYEKHKVYACEVTHQGLSSPVTKSFNRGEC",95 % of control
6,"GpH7-B3 variant N325_01G/GpL16-k0 (antibody, human IgG1, kappa, also called Ho Ab N325_01G) heavy: not shown light: DIVMTQSPLSLPVTPGEPASISCQASESLVHSNRNTYLHWYLQKPGQSPQLLIYKVSNRFSGVPDRFSGSGSGTDFTLKISRVEAEDVGVYYCSQNTHVPPTFGQGTKVEIERTVAAPSVFIFPPSDEQLKSGTASVVCLLNNFYPREAKVQWKVDNALQSGNSQESVTEQDSKDSTYSLSSTLTLSKADYEKHKVYACEVTHQGLSSPVTKSFNRGEC",26.7 % of control

# More lines, now with the values ahead:
row,Ho/Con_2aR,Binder
1,126 % of control,"GpH7-B3 variant N325_13S/GpL16-k0 (antibody, human IgG1, kappa, also called Ho Ab N325_13S) heavy: not shown light: DIVMTQSPLSLPVTPGEPASISCQASESLVHSNRNTYLHWYLQKPGQSPQLLIYKVSNRFSGVPDRFSGSGSGTDFTLKISRVEAEDVGVYYCSQNTHVPPTFGQGTKVEIERTVAAPSVFIFPPSDEQLKSGTASVVCLLNNFYPREAKVQWKVDNALQSGNSQESVTEQDSKDSTYSLSSTLTLSKADYEKHKVYACEVTHQGLSSPVTKSFNRGEC"
2,49.9 % of control,"GpH7-B3 variant N325_10E/GpL16-k0 (antibody, human IgG1, kappa, also called Ho Ab N325_10E) heavy: not shown light: DIVMTQSPLSLPVTPGEPASISCQASESLVHSNRNTYLHWYLQKPGQSPQLLIYKVSNRFSGVPDRFSGSGSGTDFTLKISRVEAEDVGVYYCSQNTHVPPTFGQGTKVEIERTVAAPSVFIFPPSDEQLKSGTASVVCLLNNFYPREAKVQWKVDNALQSGNSQESVTEQDSKDSTYSLSSTLTLSKADYEKHKVYACEVTHQGLSSPVTKSFNRGEC"
3,60.2 % of control,"GpH7-B3 variant N325_14T/GpL16-k0 (antibody, human IgG1, kappa, also called Ho Ab N325_14T) heavy: not shown light: DIVMTQSPLSLPVTPGEPASISCQASESLVHSNRNTYLHWYLQKPGQSPQLLIYKVSNRFSGVPDRFSGSGSGTDFTLKISRVEAEDVGVYYCSQNTHVPPTFGQGTKVEIERTVAAPSVFIFPPSDEQLKSGTASVVCLLNNFYPREAKVQWKVDNALQSGNSQESVTEQDSKDSTYSLSSTLTLSKADYEKHKVYACEVTHQGLSSPVTKSFNRGEC"
